The record followed here is IntAct's records for PubMed 30126976.

B1: Plasma membrane calcium-transporting ATPase 2 (Homo sapiens), Q01814 (parent)
chain: MGDMTNSDFYSKNQRNESSHGGEFGCTMEELRSLMELRGTEAVVKIKETYGDTEAICRRLKTSPVEGLPGTAPDLEKRKQIFGQNFIPPKKPKTFLQLVWEALQDVTLIILEIAAIISLGLSFYHPPGEGNEGCATAQGGAEDEGEAEAGWIEGAAILLSVICVVLVTAFNDWSKEKQFRGLQSRIEQEQKFTVVRAGQVVQIPVAEIVVGDIAQVKYGDLLPADGLFIQGNDLKIDESSLTGESDQVRKSVDKDPMLLSGTHVMEGSGRMLVTAVGVNSQTGIIFTLLGAGGEEEEKKDKKGVKKGDGLQLPAADGAAASNAADSANASLVNGKMQDGNVDASQSKAKQQDGAAAMEMQPLKSAEGGDADDRKKASMHKKEKSVLQGKLTKLAVQIGKAGLVMSAITVIILVLYFTVDTFVVNKKPWLPECTPVYVQYFVKFFIIGVTVLVVAVPEGLPLAVTISLAYSVKKMMKDNNLVRHLDACETMGNATAICSDKTGTLTTNRMTVVQAYVGDVHYKEIPDPSSINTKTMELLINAIAINSAYTTKILPPEKEGALPRQVGNKTECGLLGFVLDLKQDYEPVRSQMPEEKLYKVYTFNSVRKSMSTVIKLPDESFRMYSKGASEIVLKKCCKILNGAGEPRVFRPRDRDEMVKKVIEPMACDGLRTICVAYRDFPSSPEPDWDNENDILNELTCICVVGIEDPVRPEVPEAIRKCQRAGITVRMVTGDNINTARAIAIKCGIIHPGEDFLCLEGKEFNRRIRNEKGEIEQERIDKIWPKLRVLARSSPTDKHTLVKGIIDSTHTEQRQVVAVTGDGTNDGPALKKADVGFAMGIAGTDVAKEASDIILTDDNFSSIVKAVMWGRNVYDSISKFLQFQLTVNVVAVIVAFTGACITQDSPLKAVQMLWVNLIMDTFASLALATEPPTETLLLRKPYGRNKPLISRTMMKNILGHAVYQLALIFTLLFVGEKMFQIDSGRNAPLHSPPSEHYTIIFNTFVMMQLFNEINARKIHGERNVFDGIFRNPIFCTIVLGTFAIQIVIVQFGGKPFSCSPLQLDQWMWCIFIGLGELVWGQVIATIPTSRLKFLKEAGRLTQKEEIPEEELNEDVEEIDHAERELRRGQILWFRGLNRIQTQIRVVKAFRSSLYEGLEKPESRTSIHNFMAHPEFRIEDSQPHIPLIDDTDLEEDAALKQNSSPPSSLNKNNSAIDSGINLTTDTSKSATSSSPGSPIHSLETSL
B2: Plasma membrane calcium-transporting ATPase 1 (Homo sapiens), P20020 (parent)
chain: MGDMANNSVAYSGVKNSLKEANHDGDFGITLAELRALMELRSTDALRKIQESYGDVYGICTKLKTSPNEGLSGNPADLERREAVFGKNFIPPKKPKTFLQLVWEALQDVTLIILEIAAIVSLGLSFYQPPEGDNALCGEVSVGEEEGEGETGWIEGAAILLSVVCVVLVTAFNDWSKEKQFRGLQSRIEQEQKFTVIRGGQVIQIPVADITVGDIAQVKYGDLLPADGILIQGNDLKIDESSLTGESDHVKKSLDKDPLLLSGTHVMEGSGRMVVTAVGVNSQTGIIFTLLGAGGEEEEKKDEKKKEKKNKKQDGAIENRNKAKAQDGAAMEMQPLKSEEGGDGDEKDKKKANLPKKEKSVLQGKLTKLAVQIGKAGLLMSAITVIILVLYFVIDTFWVQKRPWLAECTPIYIQYFVKFFIIGVTVLVVAVPEGLPLAVTISLAYSVKKMMKDNNLVRHLDACETMGNATAICSDKTGTLTMNRMTVVQAYINEKHYKKVPEPEAIPPNILSYLVTGISVNCAYTSKILPPEKEGGLPRHVGNKTECALLGLLLDLKRDYQDVRNEIPEEALYKVYTFNSVRKSMSTVLKNSDGSYRIFSKGASEIILKKCFKILSANGEAKVFRPRDRDDIVKTVIEPMASEGLRTICLAFRDFPAGEPEPEWDNENDIVTGLTCIAVVGIEDPVRPEVPDAIKKCQRAGITVRMVTGDNINTARAIATKCGILHPGEDFLCLEGKDFNRRIRNEKGEIEQERIDKIWPKLRVLARSSPTDKHTLVKGIIDSTVSDQRQVVAVTGDGTNDGPALKKADVGFAMGIAGTDVAKEASDIILTDDNFTSIVKAVMWGRNVYDSISKFLQFQLTVNVVAVIVAFTGACITQDSPLKAVQMLWVNLIMDTLASLALATEPPTESLLLRKPYGRNKPLISRTMMKNILGHAFYQLVVVFTLLFAGEKFFDIDSGRNAPLHAPPSEHYTIVFNTFVLMQLFNEINARKIHGERNVFEGIFNNAIFCTIVLGTFVVQIIIVQFGGKPFSCSELSIEQWLWSIFLGMGTLLWGQLISTIPTSRLKFLKEAGHGTQKEEIPEEELAEDVEEIDHAERELRRGQILWFRGLNRIQTQIRVVNAFRSSLYEGLEKPESRSSIHNFMTHPEFRIEDSEPHIPLIDDTDAEDDAPTKRNSSPPPSPNKNNNAVDSGIHLTIEMNKSATSSSPGSPLHSLETSL
B3: Vang-like protein 1 (Homo sapiens), Q8TAA9 (parent)
chain: MDTESTYSGYSYYSSHSKKSHRQGERTRERHKSPRNKDGRGSEKSVTIQPPTGEPLLGNDSTRTEEVQDDNWGETTTAITGTSEHSISQEDIARISKDMEDSVGLDCKRYLGLTVASFLGLLVFLTPIAFILLPPILWRDELEPCGTICEGLFISMAFKLLILLIGTWALFFRKRRADMPRVFVFRALLLVLIFLFVVSYWLFYGVRILDSRDRNYQGIVQYAVSLVDALLFIHYLAIVLLELRQLQPMFTLQVVRSTDGESRFYSLGHLSIQRAALVVLENYYKDFTIYNPNLLTASKFRAAKHMAGLKVYNVDGPSNNATGQSRAMIAAAARRRDSSHNELYYEEAEHERRVKKRKARLVVAVEEAFIHIQRLQAEEQQKAPGEVMDPREAAQAIFPSMARALQKYLRITRQQNYHSMESILQHLAFCITNGMTPKAFLERYLSAGPTLQYDKDRWLSTQWRLVSDEAVTNGLRDGIVFVLKCLDFSLVVNVKKIPFIILSEEFIDPKSHKFVLRLQSETSV
B4: Vang-like protein 2 (Homo sapiens), Q9ULK5 (parent)
chain: MDTESQYSGYSYKSGHSRSSRKHRDRRDRHRSKSRDGGRGDKSVTIQAPGEPLLDNESTRGDERDDNWGETTTVVTGTSEHSISHDDLTRIAKDMEDSVPLDCSRHLGVAAGATLALLSFLTPLAFLLLPPLLWREELEPCGTACEGLFISVAFKLLILLLGSWALFFRRPKASLPRVFVLRALLMVLVFLLVVSYWLFYGVRILDARERSYQGVVQFAVSLVDALLFVHYLAVVLLELRQLQPQFTLKVVRSTDGASRFYNVGHLSIQRVAVWILEKYYHDFPVYNPALLNLPKSVLAKKVSGFKVYSLGEENSTNNSTGQSRAVIAAAARRRDNSHNEYYYEEAEHERRVRKRRARLVVAVEEAFTHIKRLQEEEQKNPREVMDPREAAQAIFASMARAMQKYLRTTKQQPYHTMESILQHLEFCITHDMTPKAFLERYLAAGPTIQYHKERWLAKQWTLVSEEPVTNGLKDGIVFLLKRQDFSLVVSTKKVPFFKLSEEFVDPKSHKFVMRLQSETSV
B5: Sodium bicarbonate cotransporter 3 (Homo sapiens), Q9Y6M7 (parent)
chain: MERFRLEKKLPGPDEEAVVDLGKTSSTVNTKFEKEELESHRAVYIGVHVPFSKESRRRHRHRGHKHHHRRRKDKESDKEDGRESPSYDTPSQRVQFILGTEDDDEEHIPHDLFTEMDELCYRDGEEYEWKETARWLKFEEDVEDGGDRWSKPYVATLSLHSLFELRSCILNGTVMLDMRASTLDEIADMVLDNMIASGQLDESIRENVREALLKRHHHQNEKRFTSRIPLVRSFADIGKKHSDPHLLERNGEGLSASRHSLRTGLSASNLSLRGESPLSLLLGHLLPSSRAGTPAGSRCTTPVPTPQNSPPSSPSISRLTSRSSQESQRQAPELLVSPASDDIPTVVIHPPEEDLEAALKGEEQKNEENVDLTPGILASPQSAPGNLDNSKSGEIKGNGSGGSRENSTVDFSKVDMNFMRKIPTGAEASNVLVGEVDFLERPIIAFVRLAPAVLLTGLTEVPVPTRFLFLLLGPAGKAPQYHEIGRSIATLMTDEIFHDVAYKAKDRNDLLSGIDEFLDQVTVLPPGEWDPSIRIEPPKSVPSQEKRKIPVFHNGSTPTLGETPKEAAHHAGPELQRTGRLFGGLILDIKRKAPFFLSDFKDALSLQCLASILFLYCACMSPVITFGGLLGEATEGRISAIESLFGASLTGIAYSLFAGQPLTILGSTGPVLVFEKILYKFCRDYQLSYLSLRTSIGLWTSFLCIVLVATDASSLVCYITRFTEEAFAALICIIFIYEALEKLFDLGETYAFNMHNNLDKLTSYSCVCTEPPNPSNETLAQWKKDNITAHNISWRNLTVSECKKLRGVFLGSACGHHGPYIPDVLFWCVILFFTTFFLSSFLKQFKTKRYFPTKVRSTISDFAVFLTIVIMVTIDYLVGVPSPKLHVPEKFEPTHPERGWIISPLGDNPWWTLLIAAIPALLCTILIFMDQQITAVIINRKEHKLKKGAGYHLDLLMVGVMLGVCSVMGLPWFVAATVLSISHVNSLKVESECSAPGEQPKFLGIREQRVTGLMIFILMGLSVFMTSVLKFIPMPVLYGVFLYMGVSSLKGIQLFDRIKLFGMPAKHQPDLIYLRYVPLWKVHIFTVIQLTCLVLLWVIKVSAAAVVFPMMVLALVFVRKLMDLCFTKRELSWLDDLMPESKKKKEDDKKKKEKEEAERMLQDDDDTVHLPFEGGSLLQIPVKALKYSPDKPVSVKISFEDEPRKKYVDAETSL
B6: 5-hydroxytryptamine receptor 2C (Homo sapiens), P28335 (parent)
chain: MVNLRNAVHSFLVHLIGLLVWQSDISVSPVAAIVTDIFNTSDGGRFKFPDGVQNWPALSIVIIIIMTIGGNILVIMAVSMEKKLHNATNYFLMSLAIADMLVGLLVMPLSLLAILYDYVWPLPRYLCPVWISLDVLFSTASIMHLCAISLDRYVAIRNPIEHSRFNSRTKAIMKIAIVWAISIGVSVPIPVIGLRDEEKVFVNNTTCVLNDPNFVLIGSFVAFFIPLTIMVITYCLTIYVLRRQALMLLHGHTEEPPGLSLDFLKCCKRNTAEEENSANPNQDQNARRRKKKERRPRGTMQAINNERKASKVLGIVFFVFLIMWCPFFITNILSVLCEKSCNQKLMEKLLNVFVWIGYVCSGINPLVYTLFNKIYRRAFSNYLRCNYKVEKKPPVRQIPRVAATALSGRELNVNIYRHTNEPVIEKASDNEPGIEMQVENLELPVNPSSVVSERISSV
B7: Protein FAM163B (Homo sapiens), P0C2L3 (parent)
chain: MTAGTVVITGGILATVILLCIIAVLCYCRLQYYCCKKDESEEDEEEPDFAVHSHLPPLHSNRNLVLTNGPALYPTASTSFSQKSPQARALCRSCSHCEPPTFFLQEPPEEEEDVLNGGERVLYKSVSQEDVELPPGGFGGLQALNPNRLSAMREAFARSRSISTDV

The first test covers variants of B1. The following applies: with scrib_human SCRIB.
Target sequence in this assay (Q14160 whole entry): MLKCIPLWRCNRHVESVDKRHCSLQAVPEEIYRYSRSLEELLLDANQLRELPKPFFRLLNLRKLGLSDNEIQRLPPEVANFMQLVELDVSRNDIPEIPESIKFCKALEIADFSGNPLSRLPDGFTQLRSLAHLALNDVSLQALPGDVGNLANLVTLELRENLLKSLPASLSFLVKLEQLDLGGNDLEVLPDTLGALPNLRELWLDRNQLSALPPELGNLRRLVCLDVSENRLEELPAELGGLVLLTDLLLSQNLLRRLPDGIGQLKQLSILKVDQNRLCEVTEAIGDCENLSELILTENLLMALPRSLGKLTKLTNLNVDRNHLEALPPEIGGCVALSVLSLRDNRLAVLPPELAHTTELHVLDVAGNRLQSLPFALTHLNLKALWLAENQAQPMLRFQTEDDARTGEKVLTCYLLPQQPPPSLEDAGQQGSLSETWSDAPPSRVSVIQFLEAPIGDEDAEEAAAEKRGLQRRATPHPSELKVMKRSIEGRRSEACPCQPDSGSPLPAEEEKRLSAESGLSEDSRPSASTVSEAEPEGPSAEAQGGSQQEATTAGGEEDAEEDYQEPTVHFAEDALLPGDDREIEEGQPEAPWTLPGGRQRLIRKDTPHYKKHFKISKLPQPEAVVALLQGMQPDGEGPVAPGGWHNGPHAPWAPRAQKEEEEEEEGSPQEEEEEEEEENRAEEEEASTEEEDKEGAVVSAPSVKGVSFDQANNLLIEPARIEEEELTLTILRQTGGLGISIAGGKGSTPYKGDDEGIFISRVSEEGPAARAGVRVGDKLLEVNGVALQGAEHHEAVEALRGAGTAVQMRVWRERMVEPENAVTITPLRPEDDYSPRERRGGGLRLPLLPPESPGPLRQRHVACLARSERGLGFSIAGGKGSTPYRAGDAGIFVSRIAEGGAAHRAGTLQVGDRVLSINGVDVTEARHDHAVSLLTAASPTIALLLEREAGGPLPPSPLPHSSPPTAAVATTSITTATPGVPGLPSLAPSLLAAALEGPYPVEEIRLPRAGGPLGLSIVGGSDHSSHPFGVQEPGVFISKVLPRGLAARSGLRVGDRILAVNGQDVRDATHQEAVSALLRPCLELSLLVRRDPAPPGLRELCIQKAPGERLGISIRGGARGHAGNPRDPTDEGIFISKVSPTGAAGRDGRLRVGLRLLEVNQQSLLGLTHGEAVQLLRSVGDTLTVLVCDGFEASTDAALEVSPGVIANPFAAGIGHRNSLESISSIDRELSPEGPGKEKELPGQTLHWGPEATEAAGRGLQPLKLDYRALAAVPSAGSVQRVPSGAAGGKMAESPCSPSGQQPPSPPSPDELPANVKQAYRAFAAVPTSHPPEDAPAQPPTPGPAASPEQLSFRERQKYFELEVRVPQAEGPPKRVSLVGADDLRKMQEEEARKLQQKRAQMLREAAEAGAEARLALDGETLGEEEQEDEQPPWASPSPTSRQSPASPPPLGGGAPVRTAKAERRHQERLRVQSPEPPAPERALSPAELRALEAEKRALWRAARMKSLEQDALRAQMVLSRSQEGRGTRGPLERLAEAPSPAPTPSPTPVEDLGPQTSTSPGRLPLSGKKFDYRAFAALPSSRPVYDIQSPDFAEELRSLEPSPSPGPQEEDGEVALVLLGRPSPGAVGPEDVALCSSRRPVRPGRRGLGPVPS
As for S1238E;S1242E, the “effect of a mutation on the interaction” value is given as “with no effect”.

On to S1242E, for which the “effect of a mutation on the interaction” value is “with no effect”.

Another test covers variants of B1. The following applies: with scrib_human SCRIB. This is another data set of the same source.
Target sequence in this assay (Q14160 whole entry): as above
For S1242E, the “effect of a mutation on the interaction” value was “increasing interaction strength”.

The variants in another test derive from B2. The note with it: with scrib_human SCRIB.
Target sequence in this assay (Q14160 whole entry): as above
For the variant S1215E;S1219E, the “effect of a mutation on the interaction” value is reported as “increasing interaction strength”.

In a further test the parent is B2. The note with it: with scrib_human SCRIB. This is another data set of the same source.
Target sequence in this assay (Q14160 whole entry): as above
As for S1219E, the “effect of a mutation on the interaction” value is listed as “increasing interaction strength”.

The variants in the next test derive from B3. The following applies: with dlg1_human DLG1, Q12959.
Target sequence in this assay (Q12959 whole entry, looked up): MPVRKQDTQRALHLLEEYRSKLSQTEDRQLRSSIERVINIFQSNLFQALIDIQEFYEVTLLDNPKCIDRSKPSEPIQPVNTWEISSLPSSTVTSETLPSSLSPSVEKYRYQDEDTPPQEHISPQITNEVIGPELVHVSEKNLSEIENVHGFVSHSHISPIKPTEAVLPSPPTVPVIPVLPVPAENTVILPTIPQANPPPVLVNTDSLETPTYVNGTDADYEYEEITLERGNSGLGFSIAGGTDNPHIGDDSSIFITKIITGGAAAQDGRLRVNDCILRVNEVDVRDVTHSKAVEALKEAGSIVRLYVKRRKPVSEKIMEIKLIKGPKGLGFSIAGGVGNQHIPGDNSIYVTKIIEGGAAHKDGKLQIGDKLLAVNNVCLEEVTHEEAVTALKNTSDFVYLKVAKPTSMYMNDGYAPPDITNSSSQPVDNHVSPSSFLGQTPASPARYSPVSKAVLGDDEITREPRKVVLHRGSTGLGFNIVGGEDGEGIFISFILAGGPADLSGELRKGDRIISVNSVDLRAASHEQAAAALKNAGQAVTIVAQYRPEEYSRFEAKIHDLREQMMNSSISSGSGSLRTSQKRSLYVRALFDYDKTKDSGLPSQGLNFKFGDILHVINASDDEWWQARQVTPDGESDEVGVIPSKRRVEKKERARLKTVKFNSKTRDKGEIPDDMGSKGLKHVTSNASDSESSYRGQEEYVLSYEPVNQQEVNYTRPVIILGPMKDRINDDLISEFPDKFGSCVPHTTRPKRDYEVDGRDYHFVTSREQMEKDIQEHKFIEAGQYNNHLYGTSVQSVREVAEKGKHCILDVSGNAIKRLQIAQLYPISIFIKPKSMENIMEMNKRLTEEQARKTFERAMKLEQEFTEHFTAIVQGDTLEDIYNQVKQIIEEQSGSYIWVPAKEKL
With S523E, the “effect of a mutation on the interaction” value is “increasing interaction strength”.

The variants in a further test derive from B4. The note with it: with dlg1_human DLG1, Q12959.
Target sequence in this assay (Q12959 whole entry, looked up): as above
S520E: the “effect of a mutation on the interaction” value is “increasing interaction strength”. On to S517E;S520E, for which the “effect of a mutation on the interaction” value is reported as “with no effect”.

Variants of B5 are the subject of another test. The note with it: with scrib_human SCRIB.
Target sequence in this assay (Q14160 whole entry): as the sequence (Q14160 whole entry) above
As for S1213E, the “effect of a mutation on the interaction” value is reported as “with no effect”.

The next test covers variants of B6. The following applies: with dlg1_human DLG1, Q12959.
Target sequence in this assay (Q12959 whole entry, looked up): as the sequence (Q12959 whole entry, looked up) above
Take S457E: the “effect of a mutation on the interaction” value is given as “with no effect”.

Variants of B7 are the subject of a further test. The following applies: with scrib_human SCRIB.
Target sequence in this assay (Q14160 whole entry): as the sequence (Q14160 whole entry) above
On to T164E, for which the “effect of a mutation on the interaction” value is reported as “disrupting interaction strength”.

The next test covers variants of B7. The note with it: with dlg1_human DLG1, Q12959.
Target sequence in this assay (Q12959 whole entry, looked up): as the sequence (Q12959 whole entry, looked up) above
For the variant T164E, the “effect of a mutation on the interaction” value is “disrupting interaction strength”.

The variants in the next test derive from B7. The note with it: with scrib_human SCRIB. This is another data set of the same source.
Consider S163E, for which the “effect of a mutation on the interaction” value is “with no effect”.
